According to publication PMC5074805:

What was measured:
[1] = molecular target: M4NΔC (M4N without stop helix); assay: SEC-MALS; static light scattering: Superdex S200 gel size exclusion column coupled to a miniDAWN Tristar laser photometer and a differential refractometer; buffer A (50 mM Tris pH 8, 150 mM NaCl)
[2] = molecular target: M4N-His (M4N with the stop helix extended by a C-terminal His6-tag); assay: as above

| stoichiometry N [1] | stoichiometry N [2] | Substance |
| --- | --- | --- |
| 2 | – | M4NΔC (M4N without stop helix) |
| – | 2 | M4N-His (M4N with the stop helix extended by a C-terminal His6-tag) |
